Assay [1] addresses T1, CD97 (reference without GAIN mutation) expressed on ExpiCHO cells in the mutational study (human, UniProt P48960 21-835).
T1 construct: the whole entry for isoform 1 is named here; also called CD97 GAIN domain
T1 sequence: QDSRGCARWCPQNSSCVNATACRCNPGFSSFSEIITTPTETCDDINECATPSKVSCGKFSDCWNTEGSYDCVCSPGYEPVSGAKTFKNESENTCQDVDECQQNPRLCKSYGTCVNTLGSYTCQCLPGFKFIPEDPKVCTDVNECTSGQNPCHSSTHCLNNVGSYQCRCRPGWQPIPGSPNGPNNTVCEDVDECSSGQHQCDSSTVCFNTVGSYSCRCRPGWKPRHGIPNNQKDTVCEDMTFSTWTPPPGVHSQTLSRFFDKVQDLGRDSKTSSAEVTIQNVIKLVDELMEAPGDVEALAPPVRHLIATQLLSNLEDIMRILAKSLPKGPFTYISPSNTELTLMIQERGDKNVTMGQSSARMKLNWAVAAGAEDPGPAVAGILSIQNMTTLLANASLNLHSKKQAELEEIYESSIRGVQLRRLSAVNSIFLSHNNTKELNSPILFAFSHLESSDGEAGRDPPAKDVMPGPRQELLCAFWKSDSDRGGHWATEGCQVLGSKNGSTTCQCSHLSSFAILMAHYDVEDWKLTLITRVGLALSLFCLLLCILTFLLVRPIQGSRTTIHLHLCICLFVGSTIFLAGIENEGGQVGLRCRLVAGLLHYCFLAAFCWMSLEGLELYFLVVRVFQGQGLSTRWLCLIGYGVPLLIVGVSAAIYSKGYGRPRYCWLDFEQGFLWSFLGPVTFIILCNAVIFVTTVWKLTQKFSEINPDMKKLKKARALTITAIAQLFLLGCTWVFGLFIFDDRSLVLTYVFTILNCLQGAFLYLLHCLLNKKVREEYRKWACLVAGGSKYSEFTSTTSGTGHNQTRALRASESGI
The assay is described as follows: cell-based binding assay: CD97 transiently expressed on ExpiCHO cells, A8 Fab titrated, flow cytometry MFI, 1:1 fit; the same WT curve and value stand in the upper and the lower panel. Background: In flow cytometry, cells or beads pass a laser one at a time.
Experimental: (§1) KD values were determined from the curve fitting of a 1:1 binding model.

The target in assay [2] is T2, CD97 (ADGRE5) isoform 1 ectodomain, purified and biotinylated (human, UniProt P48960 21-552, limits assumed, biotinylated in vitro using the BirA enzyme).
T2 construct: the whole entry for isoform 1 is named here; also called CD97 isoform 1; Biotinylated CD97 isoform 1
T2 sequence: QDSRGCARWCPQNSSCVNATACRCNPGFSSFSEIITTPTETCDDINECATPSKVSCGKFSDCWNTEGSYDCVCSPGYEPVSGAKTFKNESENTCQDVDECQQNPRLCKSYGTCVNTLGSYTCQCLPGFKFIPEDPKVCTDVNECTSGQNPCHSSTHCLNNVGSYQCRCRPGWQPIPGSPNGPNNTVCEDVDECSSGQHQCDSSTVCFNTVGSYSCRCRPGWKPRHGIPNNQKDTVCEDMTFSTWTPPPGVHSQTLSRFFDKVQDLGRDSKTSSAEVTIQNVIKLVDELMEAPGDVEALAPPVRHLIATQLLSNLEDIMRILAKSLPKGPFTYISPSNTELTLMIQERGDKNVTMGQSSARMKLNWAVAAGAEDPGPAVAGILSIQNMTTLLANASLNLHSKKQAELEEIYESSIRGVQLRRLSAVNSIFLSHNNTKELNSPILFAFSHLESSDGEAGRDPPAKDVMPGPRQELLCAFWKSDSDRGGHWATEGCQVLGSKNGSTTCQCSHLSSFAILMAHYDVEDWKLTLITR
Nature of the assay: bead-based binding assay: biotinylated CD97 isoform 1 on streptavidin beads, Fab titrated, flow cytometry MFI, 1:1 fit; EXPERIMENT 2.
Experimental: as §1

The target in assay [3] is T2, CD97 (ADGRE5) isoform 1 ectodomain, …. Nature of the assay: bead-based binding assay: biotinylated CD97 isoform 1 on streptavidin beads, Fab titrated, flow cytometry MFI, 1:1 fit; EXPERIMENT 1.
Experimental: as §1
In assay [4] the target is T3, CD97 GAIN mutant T351K expressed on ExpiCHO cells (human, UniProt P48960 21-835).
T3 construct: numbering of isoform 1; whole entry named
T3 sequence: T1 sequence with T331K
The assay is described as follows: cell-based binding assay: CD97 GAIN mutant T351K transiently expressed on ExpiCHO cells, A8 Fab titrated, flow cytometry MFI; lower panel.
Experimental: as §1

The term Kd denotes a measure of binding affinity in units of concentration. High values mean weaker binding, low ones tighter binding.

Positions count from the first letter of the chain named.

B1: Antibody clone A8, Fab format (Fab, V domains shown)
VH: EVQLVESGGGLVQPGGSLRLSCAASGFTISSYSIHWVRQAPGKGLEWVASISPYYGSTSYADSVKGRFTISADTSKNTAYLQMNSLRAEDTAVYYCARSWYYYEQNPYWYQKEEQALDYWGQGTLVTVSS
VL: DIQMTQSPSSLSASVGDRVTITCRASQSVSSAVAWYQQKPGKAPKLLIYSASSLYSGVPSRFSGSRSGTDFTLTISSLQPEDFATYYCQQSVYSPVTFGQGTKVEIKR
notes: Fab; also called wild type A8
On to B1, for which the Kd in assay [1] turned out to be 45 nM; in assay [2], 9.5 nM; in assay [3], 16 nM. The binding result in assay [4] is listed as “no binding (tested: 1000 nM)”.

Source of the values: patent US20250051474A1, “ANTI-CD97 ANTIBODIES AND ANTIBODY-DRUG CONJUGATES” (New York University, priority 2023, published 2025).
